Experimental data reported in patent US20140314667A1, “METHODS OF TREATING EPIDERMAL GROWTH FACTOR DELETION MUTANT VIII RELATED DISORDERS” (AMGEN INC., priority 2011, published 2014).

What was measured:
[1] = biological target: T1, EGFRvIII receptor in NR6 M cells (Homo sapiens, UniProt P00533, DELINS30-297G); experiment: Internalization of EGFRvIII receptor by recombinant mAbs (FACS); type: cell-based; settings: 0.25 μg/ml antibody, 1 hr
T1 construct: NR6 M cells stably expressing full length EGFRvIII; expressed in transfected cells; host or cells: NR6 cells (NR6 M)
Procedure: XenoMax derived IgG1 recombinant antibodies were expressed, purified and quantitated as described previously. Antibodies were further assayed for their ability to internalize the EGFRvIII receptor in NR6 M cells. […] The cells were washed with cold 10% FCS in PBS and secondary antibody (SS Alexa antihuman IgG Fab) at 3 μg/ml Fab was added and incubated for 7 mins on ice. The cells were washed with cold 10% FCS in PBS once and then resuspended in cold media. Next, two sets of the triplicate were incubated at 37° C. and the remaining set was incubated at 4° C. for 1 hr. After that the cells incubated at 4° C. and one set of the cells incubated at 37° C. were treated with glutathione (as previously mentioned) for 1 hr on ice. Then the cells were washed and resuspended in 100 μl of cold 1% FCS in PBS and analyzed by FACS. The % internalization was calculated from the geometric mean obtained from the FACS analysis [(mean at 37° C. with glutathione−mean at 4° C. with glutathione)/(mean at 37° C. without glutathione−mean at 4 C with glutathione)].

[2] = biological target: T2, EGFRvIII expressing cells (H1477) (Homo sapiens, UniProt P00533, DELINS30-297G); experiment: Selectivity for EGFRvIII expressing cells compared to ABX-EGF; type: binding
T2 construct: host or cells: H1477 cells

EGFRvIII-peptide-OVA = biological target: T3, EGFRvIII-peptide-OVA (Homo sapiens, UniProt P00533, DELINS30-297G); experiment: B-cell culture supernatant ELISA on EGFRvIII-peptide-OVA; type: binding; settings: XenoMax approach, in words
T3 construct: 207 μg of EGFRvIII PEP3 was reduced; host or cells: synthetic peptide, chemical conjugation
Procedure: B-cells from the above-discussed animals were harvested and cultured. Those secreting EGFRvIII-peptide specific antibodies were isolated as described in Babcook et al., Proc. Natl. Acad. Sci. USA, 93:7843-7848 (1996). ELISA was used to identify primary EGFRvIII-peptide-OVA-specific wells. About 5 million B-cells were cultured from XenoMouse animals in 24596 well plates at 500 or 150 or 50 cells/well, and were screened on EGFRvIII-peptide-OVA to identify the antigen-specific wells.
244 of EGFRvIII-peptide-OVA-Elisa positive wells of OD >0.5 were screened again on EGFRvIII-peptide-OVA and on OVA to confirm that they were EGFRvIII-peptide specific.

[3] = biological target: T4, NR6 Wt cells (NR6 cells expressing EGF receptor) (Homo sapiens, UniProt P00533); experiment: Native cell binding assay by FMAT, NR6 Wt cells; settings: XenoMax approach, in words
T4 construct: expressed in transfected cells; host or cells: NR6 cells (NR6 Wt)
Description: The same type of native binding assay was done on NR6 Wt cells (NR6 cells expressing EGF receptor) (See Batra et al. Epidermal growth factor ligand-independent, unregulated, cell-transforming potential of a naturally occurring human mutant EGFRvIII gene. Cell Growth Differ. 6(10):1251-9 (1995)) to eliminate the binding is due to binding to Wt receptor (Table 3.8). ABX-EGF was used as a positive control and PK 16.3.1 at the same concentration was used as a negative control antibody. 3 out the 134 NR6 M binders were binding strongly to NR6 Wt cells. 190 of the 244 wells bound EGFRvIII peptide in Elisa were also bound to the native form on cells.
In this example, binding of anti-EGFRvIII antibodies to NR6 M cells was measured. Specifically, unquantitated supernatants of XenoMax derived IgG1 recombinant antibodies were assayed for their ability to bind to NR6 M and NR6 WT cells. Cells were seeded at 10000/well and incubated overnight at 37 C in FMAT 96 well plates. Media was removed and 40 μl mini lipo supernatant (titrated down) was added, the cells were incubated on ice for 1 hr. […] The PK 16.3.1 antibody was used as a negative control. The cells were washed with Cold PBS, secondary antibody was added (SS Alexa antihuman IgG Fc) at 1 μg/ml, 40 μl/well and incubated on ice for 1 hr. The cells were then washed with Cold PBS and fixed and read by FMAT. All antibodies were tested for specificity for binding by counter screening against NR6 WT cells.

FACS Geometric mean With glutathione 4° C. [1]: 4.88 | FACS Geometric mean With glutathione 37° C. [1]: 19.23 | selectivity for EGFRvIII expressing cells (H1477) as compared to ABX-EGF [2]: superior selectivity | binding with the pep3 (EGFRvIII-peptide-OVA): highly specific
B1: 139: XenoMax derived anti-EGFRvIII antibody, SEQ ID NO: 10/25 (antibody, listed as Homo sapiens, V domains shown)
VH: EVQVLESGGGLVQPGGSLRLSCAASGFTFSSYAMSWVRQAPGKGLEWVSAISGSGGSTNYADSVKGRFTISRDNSKNTLYLQMNSLRAEDTAVYYCAGSSGWSEYWGQGTLVTVSS
VL: DIQMTQSPSSLSASVGDRVTITCRASQGIRNNLAWYQQKPGKAPKRLIYAASNLQSGVPSRFTGSGSGTEFTLIVSSLQPEDFATYYCLQHHSYPLTSGGGTKVEIK
cross-reactivity with wild type EGFR [3]: limited cross-reactivity with wild type EGFR
